US20240279334A1 (AMBERSTONE BIOSCIENCES, published 2024)
Each block holds one binder with its values, some of them ahead of it.

Key:
[1] = target: human CD3 on T cells (Jurkat reporter cells, human primary T cells) (human) (UniProt P07766); assay: cell-based or functional assay
[2] = target: T1, recombinant human CD3E (ECD) (human, UniProt P07766 23-126); assay: ELISA with human CD3E; % Binding plotted against pH (6.0 to 7.4), relative to pH 6.0; Fab concentration not shown on the sheet
T1 construct: extracellular domain; This is the coated antigen of the ELISA; also called extracellular domain of human CD3E
Protocol: (§1) The plates were then blocked with 200 μL ELISA assay diluents with BSA after discarding the coating solution and washing three times with washing buffer (pH-adjusted 1×PBS+0.05% Tween). […] The plates were washed three times with pH-adjusted 1×PBS buffer and incubated with horseradish peroxidase (HRP) conjugated with goat anti-human IgG Fc for about 30 minutes (min) to one hour. After washing three times, the bound HRP enzyme was detected by addition of 100 μL/well […] substrate (BioFX Laboratories, MD, USA) for about 1 to 5 min and then the detection of color was done based on 630 nm absorption. The pH-adjusted 1×PBS buffer of about pH 6.0, 6.1, 6.2, 6.3, 6.4, 6.5, 6.6, 6.7, 6.8, 6.9, 7.0, 7.1, 7.2, 7.3, 7.4, 7.5 or 7.6 can be based on a regular PBS buffer that is substantially the same as the well-known Cold Spring Harbor Lab's recipe which comprises 137 mM NaCl, 2.7 mM KCl, 10 mM Na₂HPO₄, 1.8 mM KH₂PO₄, and optionally 1 mM CaCl₂) and 0.5 mM MgCl₂, wherein the buffer's pH is adjusted using HCl or H₃PO₄. Alternatively, the pH-adjusted 1×PBS buffers can be based on a modified PBS recipe that comprises 118-146 mM NaCl, 2.7 mM KCl, 10 mM Na₂HPO₄, 1.8 mM KH₂PO₄, and optionally 1 mM CaCl₂) and 0.1-0.8 mM MgCl₂, iron (0-9 mM), sulfide (0.8-5 mM), and optionally further comprising one or more components selected from the following: 5-15 mM D-glucose, NaHCO₃(5-20 mM), 0.1 mM NEAA (non-essential amino acids), 2-20 mM lactic acid and 0.1-0.5% BSA, wherein the buffer's pH is adjusted using HCl or H₃PO₄.

[3] = target: T2, extracellular domain of cynomolgus monkey CD3E (cynomolgus monkey, UniProt Q95LI5 22-117); assay: ELISA with monkey CD3E; % Binding plotted against pH (6.0 to 7.4), relative to pH 6.0; Fab concentration not shown on the sheet
T2 construct: extracellular domain; This is the coated antigen of the ELISA; also called cyno CD3
T2 sequence (looked up): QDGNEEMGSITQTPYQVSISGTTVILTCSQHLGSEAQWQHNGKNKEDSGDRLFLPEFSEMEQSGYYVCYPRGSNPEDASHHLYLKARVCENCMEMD
Protocol: as §1, with “Alternatively, the pH-adjusted 1×PBS buffers can be based on a modified PBS recipe that comprises 118-146 mM NaCl, 2.7 mM KCl, 10 mM Na₂HPO₄, 1.8 mM KH₂PO₄, and optionally 1 mM CaCl₂) and 0.1-0.8 mM MgCl₂, iron (0-9 mM), sulfide (0.8-5 mM), and optionally further comprising one or more components selected from the following: 5-15 mM D-glucose, NaHCO₃(5-20 mM), 0.1 mM NEAA (non-essential amino acids), 2-20 mM lactic acid and 0.1-0.5% BSA, wherein the buffer's pH is adjusted using HCl or H₃PO₄.” left out

T1 sequence (P07766 23-126): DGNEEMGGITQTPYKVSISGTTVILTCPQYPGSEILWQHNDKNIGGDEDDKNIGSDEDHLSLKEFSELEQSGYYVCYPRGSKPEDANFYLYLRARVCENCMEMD
Chain of human CD3 on T cells (Jurkat reporter cells, human primary T cells) (human) (P07766 23-207): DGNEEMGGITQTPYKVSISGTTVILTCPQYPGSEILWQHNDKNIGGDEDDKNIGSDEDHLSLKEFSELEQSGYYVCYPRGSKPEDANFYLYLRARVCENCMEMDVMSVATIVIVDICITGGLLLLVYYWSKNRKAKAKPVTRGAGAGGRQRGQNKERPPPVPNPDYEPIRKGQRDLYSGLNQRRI

B1: CD3(h10.v39)×TROP-2(RS7.v1) assembled in a human IgG1-Fc (Knobs-in-Holes) (bispecific antibody, not shown: a dimerising Fc or GST)
heavy: EVQLVQSGAEVKKPGASVKVSCKASGYTFTSYYTHWVRQAPGQGLEWIGWIYPGDFNTKFNEKFKGRVTLTADTSASTAYMELSSLRSEDTAVYYCARDHYGYYYFDYWGQGTLVTVSS
light: DIVMTQSPDSLAVSLGERATINCKSSQSLLNSRTRHNYLAWYQQKPGQPPKLLIYWATTRASGVPDRFSGSGSGTDFTLTISSLQAEDVAVYYCIQSYTGRTFGGGTKVEIK
VH: EVQLQQSGSELKKPGASVKVSCKASGYTFTNYGMNWVKQAPGQGLKWMGWINTYTGEPTYTDDFKGRFAFSLDTSVSTAYLQISSLKADDTAVYFCARGGFGSSYWYFDVWGQGSLVTVSS
VL: DIQLTQSPSSLSASVGDRVSITCKASQDVSIAVAWYQQKPGKAPKLLIYSASYRYTGVPDRFSGSGSGTDFTLTISSLQPEDFAVYYCQQHYITPLTFGAGTKVEIK
- percent killing of MDA-MB-468 cells at the pH 6.6 ECmax dose, pH 7.4 [1]: 16%
- percent killing of TROP-2-high MDA-MB-468 cells, pH 6.6 [1]: 100%

B2: CD3 (h10.v38)×TROP-2 (RS7.v1) hIgG1-Fc (KiH) (bispecific antibody, not shown: a dimerising Fc or GST)
heavy: EVQLVQSGAEVKKPGASVKVSCKASGYTFTSYYYHWVRQAPGQGLEWIGWIYPGDFNTKFNEKFKGRVTLTADTSASTAYMELSSLRSEDTAVYYCARDHYGYYYFDYWGQGTLVTVSS
light: DIVMTQSPDSLAVSLGERATINCKSSQSLLNSRTRHNYLAWYQQKPGQPPKLLIYWATTRASGVPDRFSGSGSGTDFTLTISSLQAEDVAVYYCIQSYTGRTFGGGTKVEIK
VH: EVQLQQSGSELKKPGASVKVSCKASGYTFTNYGMNWVKQAPGQGLKWMGWINTYTGEPTYTDDFKGRFAFSLDTSVSTAYLQISSLKADDTAVYFCARGGFGSSYWYFDVWGQGSLVTVSS
VL: DIQLTQSPSSLSASVGDRVSITCKASQDVSIAVAWYQQKPGKAPKLLIYSASYRYTGVPDRFSGSGSGTDFTLTISSLQPEDFAVYYCQQHYITPLTFGAGTKVEIK
- T cell mediated killing of DU-145 cells, EC50, pH 6.9 [1]: 144 nM
- T cell mediated killing of MDA-MB-468 cells, EC50, pH 6.6 [1]: 0.3 nM
- T cell mediated killing of MDA-MB-468 cells, EC50, pH 7.0 [1]: 9 nM
- T cell mediated killing of MDA-MB-468 cells, ECmax, pH 6.6 [1]: 30 nM
- fold reduction of MDA-MB-468 killing potency with human PBMCs (E:T about 5.5:1), pH 7.4 against pH 6.6 [1]: 80 fold

B3: h10.v38 (Fab) (Fab, V domains shown)
VH: EVQLVQSGAEVKKPGASVKVSCKASGYTFTSYYYHWVRQAPGQGLEWIGWIYPGDFNTKFNEKFKGRVTLTADTSASTAYMELSSLRSEDTAVYYCARDHYGYYYFDYWGQGTLVTVSS
VL: DIVMTQSPDSLAVSLGERATINCKSSQSLLNSRTRHNYLAWYQQKPGQPPKLLIYWATTRASGVPDRFSGSGSGTDFTLTISSLQAEDVAVYYCIQSYTGRTFGGGTKVEIK
notes: Tested as a Fab
- binding result [2]: binds

B5: h10.v27 (Fab) (Fab, V domains shown)
VH: EVQLVQSGAEVKKPGASVKVSCKASGYTFTSYYYHWVRQAPGQGLEWIGWIYPGDFNTKFNEKFKGRVTLTADTSASTAYMELSSLRSEDTAVYYCARDHYGYYYFDYWGQGTLVTVSS
VL: DIVMTQSPDSLAVSLGERATINCKSSQSLLNSRTRHNYLAWYQQKPGQPPKLLIYWATTRDSGVPDRFSGSGSGTDFTLTISSLQAEDVAVYYCIQSYTGRTFGGGTKVEIK
notes: Tested as a Fab
- binding result [2]: binds

B6: h10.v23 (Fab) (Fab, V domains shown)
VH: EVQLVQSGAEVKKPGASVKVSCKASGYTFTSYYVHWVRQAPGQGLEWIGWIYPGDFNTKFNEKFKGRVTLTADTSASTAYMELSSLRSEDTAVYYCARDHYGYYYFDYWGQGTLVTVSS
VL: DIVMTQSPDSLAVSLGERATINCKSSQSLLNSRTRHNYLAWYQQKPGQPPKLLIYWATTRASGVPDRFSGSGSGTDFTLTISSLQAEDVAVYYCIQSYTGRTFGGGTKVEIK
notes: Purified and used as a Fab; also called anti-CD3 clone h10.v23
- binding result [2]: binds

Next, values leading:

- binding result [2]: binds
B4: h10.v49 (Fab) (Fab, V domains shown)
VH: EVQLVQSGAEVKKPGASVKVSCKASGYTFTSYYYHWVRQAPGQGLEWIGWIYPGDFNTKFNEKFKGRVTLTADTSASTAYMELSSLRSEDTAVYYCARDHYHQYYFDYWGQGTLVTVSS
VL: DIVMTQSPDSLAVSLGERATINCKSSQSLLNSRTRHNYLAWYQQKPGQPPKLLIYWATTRASGVPDRFSGSGSGTDFTLTISSLQAEDVAVYYCIQSYTGRTFGGGTKVEIK
notes: Tested as a Fab

- binding result [2]: binds
- binding result [3]: binds
B7: h10.v1 (Fab) (Fab, V domains shown)
VH: EVQLVQSGAEVKKPGASVKVSCKASGYTFTSYYVHWVRQAPGQGLEWIGWIYPGDFNTKFNEKFKGRVTLTADTSASTAYMELSSLRSEDTAVYYCARDAYSYYYFDYWGQGTLVTVSS
VL: DIVMTQSPDSLAVSLGERATINCKSSQSLLNSRTRKNYLAWYQQKPGQPPKLLIYWATTRDSGVPDRFSGSGSGTDFTLTISSLQAEDVAVYYCIQSYTTRTFGGGTKVEIK
notes: Tested as a Fab; the Fab constant domains are not; also called non-pH-selective conventional control clone; conventional anti-CD3 control antibody
